Assay results published in the supplement of paper PMC11875167.

Test: observed amide hydrogen exchange rate constant kobs (stretched exponential fit, FD-normalized) (s^-1); higher = faster H/D exchange (less protection)
Conditions: pH 3 (pH read); temperature: 20 °C; D2O: 88%
Summary of the method: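 Exchange was started by placing Jurkat tryptic peptides in 88% D2O at pHread 3 and 20 °C, and was stopped with 0.23% formic acid at 13 times from 18 to 93,600 s. HDExaminer processed MS1 uptake from a Q-Exactive HF with no back-exchange correction, normalizing it to full-deuteration controls prepared for 24 h at 37 °C. The fit used a stretched single exponential with β = 0.8. The observed exchange rate constant kobs is defined as the rate from this fit.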

Substance	observed amide hydrogen exchange rate constant kobs
IYVGNLPPDIR	0.00116
IYVLLR	0.000454
KLEAAEER	0.00257
KSDVEAIFSK	0.000898
LAAIAESGVER	0.000919
LAHEVGWK	0.00169
LAMQEFMILPVGAANFR	0.000775
LAPITSDPTEATAVGAVEASFK	0.000899
LAVNMVPFPR	0.000639
LAYINPDLALEEK	0.00137
LDGLVETPTGYIESLPR	0.000897
LDIDSPPITAR	0.00107
LDNLVAILDINR	0.00063
LEEDINSSMTNSTAASRPPVTLR	0.00139
LEEDISSSMTNSTAASRPPVTLR	0.00131
LFFLQVK	0.00042
LFIGGLNTETNEK	0.00144
LFIGGLSFETTDDSLREHFEK	0.00239
LFQECCPHSTDR	0.00299
LFVGGLK	0.000811
LGDVYVNDAFGTAHR	0.00197
LGEMWNNTAADDKQPYEK	0.00171
LGEWVGLCK	0.000773

Substance	observed amide hydrogen exchange rate constant kobs
LGFAGLVQEISFGTTK	0.001
LGGSAVISLEGKPL	0.000716
LGGSLADSYLDEGFLLDK	0.00175
LGIHEDSTNR	0.00441
LHFFMPGFAPLTSR	0.00112
LIAPVAEEEATVPNNK	0.00102
LIDDMVAQVLK	0.000612
LIINSLYK	0.00064
LILPHVDIQLK	0.000852
LISWYDNEFGYSNR	0.00164
LLDVVHPAAK	0.00126
LLEPVLLLGK	0.000574
LLEVEHPAAK	0.00188
LLGELLQDNAK	0.000855
LLIHQSLAGGIIGVK	0.000892
LLLPGELAK	0.000859
LLLPWLEAR	0.00056
LLQDFFNGK	0.00068
LMDVGLIAIR	0.000707
LMGLEALK	0.000548
LMIEMDGTENK	0.00222
LNEHFLNTTDFLDTIK	0.00161
LNGTDPEDVIR	0.00197

Substance	observed amide hydrogen exchange rate constant kobs
LNLVQR	0.000854
LQAALDDEEAGGRPAMEPGNGSLDLGGDSAGR	0.00232
LQAVEVVITHLAPGTK	0.000819
LRQPFFQK	0.00093
LTDCVVMRDPASK	0.000824
LTGMAFR	0.00159
LTLHGLQQYYVK	0.000933
LVIEEAER	0.00116
LVIITAGAR	0.000717
LVILANNCPALR	0.00112
LVINGNPITIFQERDPSK	0.000923
LVKQELK	0.000709
LVLVGDGGTGK	0.000679
LVPGGGATEIELAK	0.00089
LVPVGYGIK	0.000648
LVQAFQFTDK	0.00109
LVQDVANNTNEEAGDGTTTATVLAR	0.00155
LVQGSILK	0.000721
LWDLTTGTTTR	0.00172
LYQSAGGMPGGMPGGFPGGGAPPSGGASSGPTIEEVD	0.00113
MFVGGLSWDTSK	0.00136
MFVLDEADEMLSR	0.00164
MGANSLER	0.00212

Substance	observed amide hydrogen exchange rate constant kobs
MINTDLSR	0.000886
MLVSGAGDIK	0.00135
MTDQEAIQDLWQWR	0.000842
MVLVGDVK	0.000602
MVNHFIAEFK	0.00114
MVVESAYEVIK	0.000759
NDLAVVDVR	0.000939
NFAFLEFR	0.00106
NFSDNQLQEGK	0.00213
NIEDVIAQGIGK	0.00103
NIGVDNPAAK	0.0014
NIIHGSDSVESAEK	0.00215
NIPGITLLNVSK	0.000585
NLDIERPTYTNLNR	0.00136
NLLSVAYK	0.00119
NLPFDFTWK	0.00101
NLPLPPPPPPR	0.00144
NMGGPYGGGNYGPGGSGGSGGYGGR	0.00223
NNQFQALLQYADPVSAQHAK	0.000863
NNQITNNQR	0.00134
NPDDITNEEYGEFYK	0.00176
NPDDITQEEYGEFYK	0.00161
NPLPSK	0.000929

Substance	observed amide hydrogen exchange rate constant kobs
NPPGFAFVEFEDPRDAADAVR	0.00134
NQGGYGGSSSSSSYGSGR	0.00275
NQVAMNPTNTVFDAK	0.000774
NVTLPAVFK	0.000481
NWMNSLGVNPR	0.000991
PAAPPAPGPGQLTLR	0.000936
PFEVPFLK	0.000569
PFLNGLTGKPVMVK	0.000606
PFLWLAR	0.000665
PLRLPLQDVYK	0.000685
PMPNPNPNHPSSSGSFSDADLADGVSGGEGK	0.00261
PVGSLAGIGEVLGK	0.00115
PVHHGVNQLK	0.00235
PYVEEGLHPQIIIR	0.000843
QDFVQHFSQIVR	0.00117
QEMQEVQSSR	0.00166
QEYDESGPSIVHRK	0.00258
QFLFRPWDVTK	0.000828
QHYIDLK	0.00137
QIPQATASMK	0.00103
QITVNDLPVGR	0.000932
QIVWNGPVGVFEWEAFAR	0.00105
QLFHPEQLITGK	0.00131

Substance	observed amide hydrogen exchange rate constant kobs
QQISLATQMVR	0.00147
QSKPVTTPEEIAQVATISANGDK	0.000917
QSLGELIGTLNAAK	0.000915
QTVAVGVIK	0.000426
QVVESAYEVIK	0.000781
RAAEDDEDDDVDTKK	0.0039
RALEQQVEEMK	0.000806
RAPFDLFENK	0.00167
REEEEFNTGPLSVLTQSVK	0.00112
RFDDAVVQSDMK	0.00151
RGILTLK	0.000691
RGLEVNK	0.00164
RHLTGEFEK	0.00392
RLNINAAK	0.000596
RNTTIPTK	0.00112
RSELIAK	0.000984
RVHPVSTMIK	0.00129
RVIISAPSADAPMFVMGVNHEK	0.000994
RVLIAAHGNSLR	0.00149
SADTLWDIQK	0.000935
SADTLWGIQK	0.000987
SAEFLLHMLK	0.00118
SDALETLGFLNHYQMK	0.00133

Substance	observed amide hydrogen exchange rate constant kobs
SESPKEPEQLRK	0.00165
SFFTDDDK	0.0032
SFYPEEVSSMVLTK	0.000867
SGYLAGDK	0.00168
SIEVIENR	0.000822
SINPDEAVAYGAAVQAAILSGDK	0.000731
SIQFVDWCPTGFK	0.00182
SIYGEK	0.00146
SIYYITGESK	0.00108
SLADELALVDVLEDK	0.00105
SLAGSSGPGASSGTSGDHGELVVR	0.00237
SLEGDLEDLK	0.00103
SLTNDWEDHLAVK	0.00185
SNEILTAIIQGMR	0.000423
SNNVEMDWVLK	0.000871
SPYQEFTDHLVK	0.00116
SQIHDIVLVGGSTR	0.00136
SQLDIIIHSLK	0.000886
SSFYVNGLTLGGQK	0.00091
